The record followed here is article PMC8629192.

The assay concerns the target SARS-CoV-2 spike protein (Wuhan-Hu-1), recombinant full-length spike with C-terminal histidine (SARS-CoV-2) (UniProt P0DTC2). The assay is described as follows: ELISA. (In general: In an ELISA, binding on a coated surface is turned into a signal by an enzyme label.)

pKd: −log10 of the molar value.

Sequence of LRRC15-Fc (Q8TF66 22-538): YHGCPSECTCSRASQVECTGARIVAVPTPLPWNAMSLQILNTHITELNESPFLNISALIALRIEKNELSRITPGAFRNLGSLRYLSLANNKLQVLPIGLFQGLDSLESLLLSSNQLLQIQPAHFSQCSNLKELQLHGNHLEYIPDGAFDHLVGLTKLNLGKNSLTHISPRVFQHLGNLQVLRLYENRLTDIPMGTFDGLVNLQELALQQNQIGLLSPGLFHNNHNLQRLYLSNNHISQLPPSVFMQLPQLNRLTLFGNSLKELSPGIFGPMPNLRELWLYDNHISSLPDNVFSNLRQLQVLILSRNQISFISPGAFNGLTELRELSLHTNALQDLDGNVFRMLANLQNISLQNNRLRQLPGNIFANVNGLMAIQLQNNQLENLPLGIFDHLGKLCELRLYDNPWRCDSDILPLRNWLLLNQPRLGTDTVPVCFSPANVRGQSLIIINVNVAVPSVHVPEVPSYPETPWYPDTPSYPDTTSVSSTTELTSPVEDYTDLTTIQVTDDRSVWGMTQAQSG

In general, pKd refers to the negative decadic logarithm of the Kd, by convention in mol/L. For the substance “LRRC15-Fc (from UniProt Q8TF66) (Fc fusion)”, the pKd is 6.96.
